Measurements as given in paper doi:10.1101/609255.

Target: Light-Harvesting Complex II (LHCII) (spinach)
Assay: native gel or EMSA

Light-Harvesting Complex II (LHCII)
stoichiometry N: 3
